Test results from article PMC11643828, “Tumor-Targeted Cell-Penetrating Peptides Reveal That Monomethyl Auristatin E Temporally Modulates the Tumor Immune Microenvironment” (Molecules, 2024).
*1 amine or outer side, *2 acyl side, *3 side chain or, on linkers, in order; H or OH if unused. Where a SMILES comes first, the peptide text is derived from it. Bridges are numbered along the chain shown (N, C = ends). Roman numbers before positions name the chains, in order. [ ]: non-standard residue; d: D form. The star is where a group is joined. X2 = O=C(CCCCCN1C(=O)CC([*:2])C1=O)NCCOCCOCCOCCOCCOCCOCCOCCOCCC(=O)[*:1]; Hexanoyl(6-succinimido-3yl) = O=C1CC([*:1])C(=O)N1CCCCCC(=O)[*:2]; Dolaproine = CO[C@@H]([C@@H]1CCCN1)[C@@H](C)C(=O)O; Dil = CC[C@H](C)[C@H](NC)[C@@H](CC(=O)O)OC; PABC = O=C(OCc1ccc(N[*:1])cc1)[*:2]; X1 = C[C@@H](N*)[C@@H](O)c1ccccc1; Cit = NC(=O)NCCC[C@H](N)C(=O)O; NMeV = CN[C@H](C(=O)O)C(C)C; AEA = NCCOCC(=O)O

Assays:
tubulin = settings: cited from earlier work
Text: In the progression of cancers, a matrix metalloproteinase (MMP) remodeling of the extracellular tumor environment is essential for invasion and metastases. The fundamental role that MMPs play in tumor spread has made them a focus for developing new cancer therapies. While inhibitors to MMPs have been developed, pharmacologically blocking MMPs has not proven effective in patients. Alternative to enzymatic inhibition, tumor MMP activity can be therapeutically co-opted for targeting drug delivery. An example of this strategy involves cloaking cell-penetrating peptide–drug c ...

[1] = Tissue drug measurement (MMAE biodistribution) after IV cRGD-ACPP-MMAE; assay type: in vivo; settings: mice with HCT116 xenografts, 10 nmoles IV
Description: To determine tissue specificity and the kinetics of ACPP targeting in human and murine tumor model systems, we used complementary approaches, measuring drug concentrations in harvested tissues and non-invasive fluorescence whole-animal imaging. First, the pharmacokinetics of cRGD-ACPP-MMAE drug accumulation were measured in tumor and normal tissues from mice with human HCT116 xenografts. Tumor-bearing mice were intravenously (IV) injected with cRGD-ACPP-MMAE (Figure 3A). Blood, tumor, and normal tissues (heart, kidney, liver, and muscle) were collected 2, 6, and 24 h after IV injection and assayed for MMAE by LC–MS/MS (Figure 3C). […] To determine the spatial specificity of ACPP drug delivery, normal muscle tissue adjacent to the tumor xenograft was harvested.
Mice with established subcutaneous HCT116 tumors were intravenously injected through the tail vein with 10 nmoles of cRGD-ACPP-MMAE. Tumors, blood, and normal tissues were harvested at indicated time points and homogenized in 10 volumes of PBS with a point sonicator (amplitude range 5–15%). Homogenates were centrifuged ([…], 10 min) with supernatants collected and diluted 2-fold by the addition of 2% acetic acid in acetonitrile, followed by centrifugation (14× g, 10 min). MMAE concentration was measured by using LC–MS/MS with a Luna-2 C18 column (Phenomenex, Torrance, CA, USA) and Agilent Trap XCT mass spectrophotometer (Agilent), with extracted ion currents at 686.4 and 506.4 integrated and combined to improve sensitivity. Ion currents were fitted to a standard curve to determine tissue drug concentrations.

[2] = Mouse body weights in the therapy studies (safety and tolerability); assay type: in vivo, mice; settings: LL2 and B16 therapy studies, total 40 nmoles IV, weighed weekly
Description: To assess the safety and tolerability of systemically administered ACPP-MMAE conjugate, mice weights were measured weekly in the two therapy studies above.
(A) Mice bearing LL2 tumors IV injected with vehicle (untreated) or cRGD-ACPP-MMAE (20 nmoles on days 4 and 6). Individual tumor volumes plotted, left panel. Average tumors volumes on day 18 plotted as mean ± SEM, right panel (n = 10 for untreated, n = 6 for cRGD-ACPP-MMAE). Statistical significance calculated using two-tailed t testing. (B) Mice bearing B16 tumors IV injected with vehicle (untreated) or cRGD-ACPP-MMAE (20 nmoles on days 3 and 5). Individual tumor volumes plotted, left panel. Average tumors volumes on day 19 plotted as mean ± SEM, right panel (n = 10 for untreated, n = 6 for cRGD-ACPP-MMAE). Statistical significance calculated using two-tailed t testing. (C) Mouse body weights of mice from experiments in (A,B), plotted as mean fractional body weight ± SEM.
LL2 and B16 tumor cells were injected subcutaneously into the hindlimbs of 6-week-old female C57BL/6 albino mice in 100 µL of 1:1 Growth Factor Reduced Matrigel (BD) and PBS solution. […] Tumor volumes were measured and calculated using the formula as ½ × Length × Width^2. Body weights were measured weekly to assess general animal health.

| SMILES | potency for mitotic arrest and cell death (tubulin) | tissue with highest MMAE level at 2 h ([1]; 2 h, LC-MS/MS) | tumor MMAE concentration versus peri-tumoral muscle by 6 h ([1]; 6 h, LC-MS/MS) | tumor MMAE versus normal tissues at 24 h post-injection ([1]; 24 h, LC-MS/MS, one-way ANOVA with Tukey) | MMAE concentration in normal tissues after 6 h post-drug delivery ([1]; LC-MS/MS) | tumor MMAE concentration over 24 h post-injection ([1]; LC-MS/MS) | time of peak MMAE concentration in all normal tissues (heart, kidney, liver, muscle) ([1]; tissues collected 2, 6, 24 h, MMAE by LC-MS/MS) | mouse body weights, control versus treated [2] |
| --- | --- | --- | --- | --- | --- | --- | --- | --- |
| CC[C@H](C)[C@@H]([C@@H](CC(=O)N1CCC[C@H]1[C@H](OC)[C@@H](C)C(=O)N[C@H](C)[C@@H](O)c1ccccc1)OC)N(C)C(=O)[C@@H](NC(=O)[C@@H](NC)C(C)C)C(C)C [MMAE, Monomethyl auristatin E] (H-[NMeV]V[Dil][Dolaproine]-X1) | single nanomolar range |  |  |  |  |  |  |  |
| CC[C@H](C)[C@@H]([C@@H](CC(=O)N1CCC[C@H]1[C@H](OC)[C@@H](C)C(=O)N[C@H](C)[C@@H](O)c1ccccc1)OC)N(C)C(=O)[C@@H](NC(=O)[C@H](C(C)C)N(C)C(=O)OCc1ccc(NC(=O)[C@H](CCCNC(N)=O)NC(=O)[C@@H](NC(=O)CCCCCN2C(=O)CC(SC[C@@H](NC(=O)[C@@H](CCCNC(=N)N)NC(=O)[C@@H](CCCNC(=N)N)NC(=O)[C@@H](CCCNC(=N)N)NC(=O)[C@@H](CCCNC(=N)N)NC(=O)[C@@H](CCCNC(=N)N)NC(=O)[C@@H](CCCNC(=N)N)NC(=O)[C@@H](CCCNC(=N)N)NC(=O)[C@@H](CCCNC(=N)N)NC(=O)[C@@H](CCCNC(=N)N)NC(=O)CNC(=O)[C@H](C)NC(=O)[C@H](CSC)NC(=O)CNC(=O)[C@H](CC(C)C)NC(=O)[C@@H]3CCCN3C(=O)COCCNC(=O)[C@@H](CCC(=O)O)NC(=O)[C@@H](CCC(=O)O)NC(=O)[C@@H](CCC(=O)O)NC(=O)[C@@H](CCC(=O)O)NC(=O)[C@@H](CCC(=O)O)NC(=O)[C@@H](CCC(=O)O)NC(=O)[C@@H](CCC(=O)O)NC(=O)[C@@H](CCC(=O)O)NC(=O)[C@@H](CCC(=O)O)NC(=O)CCOCCOCCOCCOCCOCCOCCOCCOCCNC(=O)CCCCCN3C(=O)CC(SC[C@@H]4NC(=O)[C@@H](Cc5ccccc5)NC(=O)[C@H](CC(=O)O)NC(=O)CNC(=O)[C@H](CCCNC(=N)N)NC4=O)C3=O)C(N)=O)C2=O)C(C)C)cc1)C(C)C (some centres unmarked) [cRGD-ACPP-MMAE, cyclo(RGD)fc-MC-HN-peg8-e9-oPLGC(Me)AG-r9-c-(MC-VC-PABC-MMAE)-CONH2] (I: [dE][dE][dE][dE][dE][dE][dE][dE][dE][AEA]PLGC(Me)AG[dR][dR][dR][dR][dR][dR][dR][dR][dR][dC]-NH2 / II: V[Cit][PABC][NMeV]V[Dil][Dolaproine]-X1 / III: cyclo(RGD[dF]C); linker I:26-II:N via Hexanoyl(6-succinimido-3yl); linker I:N-III:5 via X2) |  | the kidneys had the highest levels of MMAE | higher than the surrounding normal muscle tissue | significantly higher than all normal tissues assayed | rapid decrease | remained relatively constant | 2 h | no significant difference |
